Columns and labels:
[1] = molecular target: T1, 细胞表面人CD73蛋白 (human CD73 on the cell surface) (human, UniProt P21589 27-549); experiment: flow cytometry on BXPC-3 cells, FITC anti-human IgG
T1 construct: whole, on cells; Endogenous CD73 on human tumour cell lines; also called 细胞表面CD73; CD73 on BXPC-3, SKOV-3, A375, MDA-MB-231 and A431 cells
T1 sequence (looked up): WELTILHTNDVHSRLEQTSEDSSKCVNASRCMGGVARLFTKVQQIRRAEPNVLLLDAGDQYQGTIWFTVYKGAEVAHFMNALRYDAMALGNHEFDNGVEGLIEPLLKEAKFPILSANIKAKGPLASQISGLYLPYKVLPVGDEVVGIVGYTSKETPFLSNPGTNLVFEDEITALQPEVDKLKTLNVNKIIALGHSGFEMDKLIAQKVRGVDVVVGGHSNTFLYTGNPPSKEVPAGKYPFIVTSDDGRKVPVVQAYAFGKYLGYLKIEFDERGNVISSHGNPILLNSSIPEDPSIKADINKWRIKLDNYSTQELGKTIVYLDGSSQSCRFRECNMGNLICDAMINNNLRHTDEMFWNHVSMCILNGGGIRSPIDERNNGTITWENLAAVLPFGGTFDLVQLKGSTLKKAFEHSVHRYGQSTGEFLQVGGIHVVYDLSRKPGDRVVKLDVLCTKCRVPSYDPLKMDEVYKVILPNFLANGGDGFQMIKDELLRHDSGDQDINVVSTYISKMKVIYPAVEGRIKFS

[2] = molecular target: T2, 人CD73-his重组蛋白(序列号:NM_002526.3，27-547aa) (human, UniProt P21589 27-547); experiment: BLI (Octet QKe), antibody captured on AHC sensor, 60 nM CD73-his as analyte, 1:1 fit
T2 construct: range 27-547; Transiently expressed in eukaryotic cells; also called rhCD73-his; 重组人CD73-his; not shown: his tag
T2 sequence (looked up): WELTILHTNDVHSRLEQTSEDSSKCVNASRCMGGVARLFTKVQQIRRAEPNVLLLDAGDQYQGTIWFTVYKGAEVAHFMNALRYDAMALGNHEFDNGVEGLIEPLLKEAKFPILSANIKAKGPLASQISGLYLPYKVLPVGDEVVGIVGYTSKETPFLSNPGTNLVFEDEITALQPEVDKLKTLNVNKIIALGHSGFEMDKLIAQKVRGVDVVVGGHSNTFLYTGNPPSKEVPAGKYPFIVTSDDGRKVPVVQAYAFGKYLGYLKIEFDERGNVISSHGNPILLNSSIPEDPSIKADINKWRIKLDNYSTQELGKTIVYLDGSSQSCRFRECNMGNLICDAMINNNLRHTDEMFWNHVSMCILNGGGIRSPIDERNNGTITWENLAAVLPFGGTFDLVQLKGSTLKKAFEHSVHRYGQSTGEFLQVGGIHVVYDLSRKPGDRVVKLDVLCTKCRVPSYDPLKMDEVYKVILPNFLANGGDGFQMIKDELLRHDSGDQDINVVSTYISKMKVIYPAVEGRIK

B1: MEDI9447 (antibody, V domains shown)
VH: EVQLLESGGGLVQPGGSLRLSCAASGFTFSSYAYSWVRQAPGKGLEWVSAISGSGGRTYYADSVKGRFTISRDNSKNTLYLQMNSLRAEDTAVYYCARLGYGRVDEWGRGTLVTVSS
VL: QSVLTQPPSASGTPGQRVTISCSGSLSNIGRNPVNWYQQLPGTAPKLLIYLDNLRLSGVPDRFSGSKSGTSASLAISGLQSEDEADYYCATWDDSHPGWTFGGGTKLTVLG
EC50 [1]: 0.242 nM | Kd [2]: 0.635 nM | koff [2]: 0.000105 s⁻¹ | kon [2]: 165000 M⁻¹ s⁻¹

From CN117866092A (BEIJING KENUO XINCHENG TECH CO LTD, dated 2024)
